Laboratory results reported in PMC7450098, “The maturase HydF enables [FeFe] hydrogenase assembly via transient, cofactor-dependent interactions” (The Journal of Biological Chemistry, 2020).
Where “and” joins values, the source holds several entries; their conditions need not be identical. Equal values may be shown once.

How the values were obtained:
[1] = biological target: HydF from Thermotoga maritima (Thermotoga maritima); experiment: SEC + other: GEMMA (gas-phase electrophoretic macromolecule analysis); fractions P2 of apo-HydF (70 ml) and apo-HydA1 (75 ml) from Superdex-200 (50 mM Tris-HCl pH 8.0, 150 mM NaCl), then wide-scan GEMMA at 0.02 µg/µl protein in 20 mM ammonium acetate, 0.005% Tween 20; 1 mM DTT added to samples
[2] = biological target: HydF from Thermotoga maritima (Thermotoga maritima); experiment: SEC + other: GEMMA (gas-phase electrophoretic macromolecule analysis); fraction P1 (63 ml) of apo-HydF from Superdex-200 (50 mM Tris-HCl pH 8.0, 150 mM NaCl), then wide-scan GEMMA at 0.02 µg/µl protein in 20 mM ammonium acetate, 0.005% Tween 20; 1 mM DTT added to samples
[3] = biological target: HydF from Thermotoga maritima (Thermotoga maritima); experiment: GEMMA (gas-phase electrophoretic macromolecule analysis); isolated HydF or HydA1, each as apo, [4Fe4S] and holo form; 0.02 µg/µl protein in 20 mM ammonium acetate, 0.005% Tween-20
[4] = biological target: HydF from Thermotoga maritima (Thermotoga maritima); experiment: GEMMA (gas-phase electrophoretic macromolecule analysis); mixtures of metal-free apo-HydF with HydA1 (apo, [4Fe4S] or holo); 0.02 µg/µl each protein in 20 mM ammonium acetate, 0.005% Tween-20
[5] = biological target: HydF from Thermotoga maritima (Thermotoga maritima); experiment: GEMMA (gas-phase electrophoretic macromolecule analysis); mixtures of metal-loaded HydF ([4Fe-4S]-HydF or holo-HydF) with HydA1 (apo, [4Fe4S] or holo); 0.02 µg/µl each protein in 20 mM ammonium acetate, 0.005% Tween-20
[6] = biological target: HydA1 [FeFe] hydrogenase from Chlamydomonas reinhardtii (Chlamydomonas reinhardtii); experiment: as above
[7] = biological target: T1, HydA1 (CrHydA1) (Chlamydomonas reinhardtii, UniProt Q9FYU1); experiment: in vitro reconstitution; spectroscopy; GEMMA; format: binding; conditions: anaerobic reconstitution of apo-protein
T1 construct: gene hyd1; His-tagged, purified recombinant; theoretical mass 49 kDa; monomer; apo-form reconstituted to [4Fe-4S]-HydA1
T1 sequence (Q9FYU1 56-497): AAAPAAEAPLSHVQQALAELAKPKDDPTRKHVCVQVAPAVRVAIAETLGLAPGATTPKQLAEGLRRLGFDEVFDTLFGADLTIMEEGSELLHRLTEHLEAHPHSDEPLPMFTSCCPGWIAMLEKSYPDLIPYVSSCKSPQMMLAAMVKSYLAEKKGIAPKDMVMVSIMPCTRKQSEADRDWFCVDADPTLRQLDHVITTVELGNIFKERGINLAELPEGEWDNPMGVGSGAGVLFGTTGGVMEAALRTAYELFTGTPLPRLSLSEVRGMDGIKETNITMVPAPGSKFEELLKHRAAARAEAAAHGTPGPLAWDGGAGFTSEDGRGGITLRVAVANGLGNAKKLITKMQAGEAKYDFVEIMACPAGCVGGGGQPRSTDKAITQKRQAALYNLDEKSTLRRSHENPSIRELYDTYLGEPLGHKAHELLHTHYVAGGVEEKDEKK

[8] = biological target: T2, HydF (TmHydF) (Thermotoga maritima, UniProt Q9WYS6); experiment: in vitro reconstitution; spectroscopy; GEMMA; format: binding; conditions: anaerobic reconstitution of apo-protein
T2 construct: gene TM_0445; full length, expressed in E. coli Rosetta (II), heat step and phenyl-Sepharose; about 45 kDa; mainly dimer, some tetramer; apo-form reconstituted with [4Fe-4S]
T2 sequence (Q9WYS6 1-404): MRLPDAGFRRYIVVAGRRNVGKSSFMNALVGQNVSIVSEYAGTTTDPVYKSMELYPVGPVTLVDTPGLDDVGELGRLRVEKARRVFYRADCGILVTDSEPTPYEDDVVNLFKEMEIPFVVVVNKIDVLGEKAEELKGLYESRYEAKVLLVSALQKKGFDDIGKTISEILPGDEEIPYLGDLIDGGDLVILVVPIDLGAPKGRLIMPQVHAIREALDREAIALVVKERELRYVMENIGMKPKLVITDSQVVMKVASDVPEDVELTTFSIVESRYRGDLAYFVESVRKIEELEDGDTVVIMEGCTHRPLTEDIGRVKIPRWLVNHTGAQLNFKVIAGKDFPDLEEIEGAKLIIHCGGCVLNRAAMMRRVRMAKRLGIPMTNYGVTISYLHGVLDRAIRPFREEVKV

stoichiometry N [1] | stoichiometry N [2] | stoichiometry N [3] | stoichiometry N [4] | stoichiometry N [5] | stoichiometry N (HydF per HydA1) [6] | Molecule | in vitro reconstitution; spectroscopy; GEMMA [7] | in vitro reconstitution; spectroscopy; GEMMA [8]
2 | 4 and 2 and 6 | 2 and 4 and > 6 | 2 and 4 | 2 and 4 | 2 | HydF from Thermotoga maritima (natural protein) |  | 
 |  |  |  |  |  | [S]12[Fe]3[S]4[Fe]1[S]1[Fe]2[S]3[Fe]41 [[4Fe-4S] cluster] | The [4Fe4S] clusters in apo-HydA1, apo-HydF, and the truncated HydF apo-proteins were reconstituted | The [4Fe4S] clusters in apo-HydA1, apo-HydF, and the truncated HydF apo-proteins were reconstituted
